Data set [1] addresses T1, P-TEFb/AFF4/Tat(1-57) core super elongation complex (CDK9/CycT1/AFF4/Tat) (Homo sapiens (CDK9, CycT1, AFF4)?; HIV-1 (Tat)) (UniProt P50750+O60563+Q9UHB7+P04608). To be noted: CITED mutational data (apparently), cited from earlier work.
In data set [2] the target is T1, P-TEFb/AFF4/Tat(1-57) core super elongation complex (CDK9/CycT1/AFF4/Tat) (Homo sapiens (CDK9, CycT1, AFF4)?; HIV-1 (Tat)). The data set can be described thus: EMSA. Particulars: 250x yeast tRNA.

Where two headings read alike, the source gives them in different places.

Turning to “GGCAGAUCUGAGCCCAAAAGCUCUCUGCC [HIV-1 TAR loop mutant UGGG to CAAA]”, in data set [1] ([15-18], CAAA loop), the Kd is greater than 10 nM.

For “GGCAGAUCUGAGCCUGGGAGCUCUCUGCC [HIV-1 TAR]”, the Kd in data set [2] (0.5 nM RNA, 0-90 nM complex, 6% native gel) is 0.34 nM; in data set [2] (TAR preincubated with 10 nM Palbociclib), 35.6 nM; in data set [1] (wild-type UGGG loop), 0.23 nM.

The record behind these values is patent publication US20230132667.
